From paper PMC12522135, “Engineering a Coiled-Coil Protein for DARPin Presentation as a Potent SARS-CoV‑2 Therapeutic” (Biomacromolecules, 2025)

B1: HEX-D3 (designed binder)
chain: DLGKKLLQAARAGQLDEVRELLKAGADVNAKDQEGITPLHVAAHQGHLEIVEVLLKAGADVNAKDVWGRTPLHLAAWRGHLEIVEVLLKAGADVNAKDHAGATPLHAAALSGHLEIVEVLLKAGADVNAQDKSGKTPADLAARAGHQDIAEVLQKAAGGGSGGGSGGGSGGGSGELKAIAQELKAIAKELKAIAWELKAIAQGAGGGGSGGGSGGGSGGGSDLGKKLLQAARAGQLDEVRELLKAGADVNAKDQEGITPLHVAAHQGHLEIVEVLLKAGADVNAKDVWGRTPLHLAAWRGHLEIVEVLLKAGADVNAKDHAGATPLHAAALSGHLEIVEVLLKAGADVNAQDKSGKTPADLAARAGHQDIAEVLQKAA
B2: Linear D1 (designed binder)
chain: DLGKKLLQAARAGQLDEVRELLKAGADVNAKDREGITPLHLAAQHGHLEIVEVLLKAGADVNAKDVWGRTPLHLAAWQGHLEIVEVLLKAGADVNAKDLAGATPLHVAALYGHLEIVEVLLKAGADVNAQDKSGKTPADLAARAGHQDIAEVLQKAAGGGSGGGSGGGSGGGSDLGKKLLQAARAGQLDEVRELLKAGADVNAKDREGITPLHLAAQHGHLEIVEVLLKAGADVNAKDVWGRTPLHLAAWQGHLEIVEVLLKAGADVNAKDLAGATPLHVAALYGHLEIVEVLLKAGADVNAQDKSGKTPADLAARAGHQDIAEVLQKAAGGGSGGGSGGGSGGGSDLGKKLLQAARAGQLDEVRELLKAGADVNAKDREGITPLHLAAQHGHLEIVEVLLKAGADVNAKDVWGRTPLHLAAWQGHLEIVEVLLKAGADVNAKDLAGATPLHVAALYGHLEIVEVLLKAGADVNAQDKSGKTPADLAARAGHQDIAEVLQKAA
B3: HEX-D1 (designed binder)
chain: DLGKKLLQAARAGQLDEVRELLKAGADVNAKDREGITPLHLAAQHGHLEIVEVLLKAGADVNAKDVWGRTPLHLAAWQGHLEIVEVLLKAGADVNAKDLAGATPLHVAALYGHLEIVEVLLKAGADVNAQDKSGKTPADLAARAGHQDIAEVLQKAAGGGSGGGSGGGSGGGSGELKAIAQELKAIAKELKAIAWELKAIAQGAGGGGSGGGSGGGSGGGSDLGKKLLQAARAGQLDEVRELLKAGADVNAKDREGITPLHLAAQHGHLEIVEVLLKAGADVNAKDVWGRTPLHLAAWQGHLEIVEVLLKAGADVNAKDLAGATPLHVAALYGHLEIVEVLLKAGADVNAQDKSGKTPADLAARAGHQDIAEVLQKAA
B4: Linear D2 (designed binder)
chain: DLGKKLLQAARAGQLDEVRELLKAGADVNAKDREGKTPLHVAAQEGHLEIVEVLLKAGADVNAKDVWGRTPLHLAAWIGHLEIVEVLLKAGADVNAKDVSGATPLHAAALHGHLEIVEVLLNAGADVNAQDKSGKTPADLAARAGHQDIAEVLQKAAGGGSGGGSGGGSGGGSDLGKKLLQAARAGQLDEVRELLKAGADVNAKDREGKTPLHVAAQEGHLEIVEVLLKAGADVNAKDVWGRTPLHLAAWIGHLEIVEVLLKAGADVNAKDVSGATPLHAAALHGHLEIVEVLLNAGADVNAQDKSGKTPADLAARAGHQDIAEVLQKAAGGGSGGGSGGGSGGGSDLGKKLLQAARAGQLDEVRELLKAGADVNAKDREGKTPLHVAAQEGHLEIVEVLLKAGADVNAKDVWGRTPLHLAAWIGHLEIVEVLLKAGADVNAKDVSGATPLHAAALHGHLEIVEVLLNAGADVNAQDKSGKTPADLAARAGHQDIAEVLQKAA
B5: HEX-D2 (designed binder)
chain: DLGKKLLQAARAGQLDEVRELLKAGADVNAKDREGKTPLHVAAQEGHLEIVEVLLKAGADVNAKDVWGRTPLHLAAWIGHLEIVEVLLKAGADVNAKDVSGATPLHAAALHGHLEIVEVLLNAGADVNAQDKSGKTPADLAARAGHQDIAEVLQKAAGGGSGGGSGGGSGGGSGELKAIAQELKAIAKELKAIAWELKAIAQGAGGGGSGGGSGGGSGGGSDLGKKLLQAARAGQLDEVRELLKAGADVNAKDREGKTPLHVAAQEGHLEIVEVLLKAGADVNAKDVWGRTPLHLAAWIGHLEIVEVLLKAGADVNAKDVSGATPLHAAALHGHLEIVEVLLNAGADVNAQDKSGKTPADLAARAGHQDIAEVLQKAA
B6: Linear D3 (designed binder)
chain: DLGKKLLQAARAGQLDEVRELLKAGADVNAKDQEGITPLHVAAHQGHLEIVEVLLKAGADVNAKDVWGRTPLHLAAWRGHLEIVEVLLKAGADVNAKDHAGATPLHAAALSGHLEIVEVLLKAGADVNAQDKSGKTPADLAARAGHQDIAEVLQKAAGGGSGGGSGGGSGGGSDLGKKLLQAARAGQLDEVRELLKAGADVNAKDQEGITPLHVAAHQGHLEIVEVLLKAGADVNAKDVWGRTPLHLAAWRGHLEIVEVLLKAGADVNAKDHAGATPLHAAALSGHLEIVEVLLKAGADVNAQDKSGKTPADLAARAGHQDIAEVLQKAAGGGSGGGSGGGSGGGSDLGKKLLQAARAGQLDEVRELLKAGADVNAKDQEGITPLHVAAHQGHLEIVEVLLKAGADVNAKDVWGRTPLHLAAWRGHLEIVEVLLKAGADVNAKDHAGATPLHAAALSGHLEIVEVLLKAGADVNAQDKSGKTPADLAARAGHQDIAEVLQKAA

biological target: SARS-CoV-2 RBD protein (SARS-CoV-2 (Wuhan-Hu-1), UniProt P0DTC2 319-541); assay: BLI; conditions: both partners purified

Row | Binder | Kd [pM]
1 | B1 | < 1
2 | B2 | < 1
3 | B3 | < 1
4 | B4 | < 1
5 | B5 | < 1
6 | B6 | < 1
